In patent US20190367560A1:
Bridges are numbered along the chain shown (N, C = ends). Primed or numbered codes have the meaning given here. Where no end group is shown, it is not given here. [ ]: non-standard residue; d: D form. The star is where a group is joined. Biotin = O=C1N[C@H]2[C@H](CS[C@H]2CCCCC(=O)*)N1; Fmoc = O=C(OCC1c2ccccc2-c2ccccc21)*; PEG4′ = not defined here

Key:
IgG [1] = test: SPR (BIAcore T200), equilibrium value
IgG [2] = test: SPR (BIAcore T200), 1:1 binding fit
[3] = target: human serum-derived γ-globulin (Wako) (human); test: dynamic binding capacity at 10% breakthrough; Protein A support; residence time 5 min
[4] = target: human serum-derived γ-globulin (Wako) (human); test: dynamic binding capacity at 10% breakthrough; Protein A support; residence time 1 min
[5] = target: human serum-derived γ-globulin (Wako) (human); test: dynamic binding capacity at 10% breakthrough; Protein A support; residence time 2.5 min
IgG [6] = test: SPR as in Example 1 (BIAcore T200, IgG immobilized)
[7] = target: human serum-derived γ-globulin (Wako) (human); test: dynamic binding capacity at 10% breakthrough; 4 mg peptide on 1-mL column; residence time 2.5 min
[8] = target: human serum-derived γ-globulin (Wako) (human); test: DBC at 1 mL/min, 1 mg peptide column, after 5 cycles of 0.1 M NaOH washing
[9] = target: human serum-derived γ-globulin (Wako) (human); test: DBC at 1 mL/min, 1 mg peptide column, after 2 cycles of 0.1 M NaOH washing
[10] = target: human serum-derived γ-globulin (Wako) (human); test: dynamic binding capacity at 10% breakthrough; 1 mg peptide on 1-mL column; residence time 1 min
[11] = target: human serum-derived γ-globulin (Wako) (human); test: dynamic binding capacity at 10% breakthrough; 1 mg peptide on 1-mL column; residence time 5 min
[12] = target: human serum-derived γ-globulin (Wako) (human); test: dynamic binding capacity at 10% breakthrough; 1 mg peptide on 1-mL column; residence time 2.5 min
[13] = target: human serum-derived γ-globulin (Wako) (human); test: dynamic binding capacity at 10% breakthrough; 10 mg peptide on 1-mL column; residence time 5 min
[14] = target: human serum-derived γ-globulin (Wako) (human); test: dynamic binding capacity at 10% breakthrough; 4 mg peptide on 1-mL column; residence time 5 min
[15] = target: human serum-derived γ-globulin (Wako) (human); test: dynamic binding capacity at 10% breakthrough; 4 mg peptide on 1-mL column; residence time 1 min
[16] = target: human serum-derived γ-globulin (Wako) (human); test: dynamic binding capacity at 10% breakthrough; 10 mg peptide on 1-mL column; residence time 2.5 min
[17] = target: human serum-derived γ-globulin (Wako) (human); test: DBC at 1 mL/min, 1 mg peptide column, after 1 cycle of 0.1 M NaOH washing
[18] = target: human serum-derived γ-globulin (Wako) (human); test: DBC at 1 mL/min, 1 mg peptide column, after 0 cycles of 0.1 M NaOH washing
[19] = target: human serum-derived γ-globulin (Wako) (human); test: DBC at 1 mL/min, 1 mg peptide column, after 3 cycles of 0.1 M NaOH washing
[20] = target: human serum-derived γ-globulin (Wako) (human); test: DBC at 1 mL/min, 1 mg peptide column, after 4 cycles of 0.1 M NaOH washing
[21] = target: human serum-derived γ-globulin (Wako) (human); test: dynamic binding capacity at 10% breakthrough; 10 mg peptide on 1-mL column; residence time 1 min

Molecule: GPDCAYH(Xaa1)…-NH2 (SEQ ID NO:2, wherein Xaa1 is acetylated lysine), N-terminus blocked with biotinylated PEG4, intramolecular S-S bond (peptide)
- Kd (IgG [1]): 2800 nM
- Kd (IgG [2]): 2700 nM

Molecule: GPDCAYH(Xaa1)…-NH2 (SEQ ID NO:2, wherein Xaa1 is lysine), N-terminus blocked with biotinylated PEG4, intramolecular S-S bond (peptide)
- Kd (IgG [1]): 131 nM
- Kd (IgG [2]): 156 nM

Molecule: commercially available Protein A support MabSelect (GE Healthcare) (from UniProt P38507 37-327)
- DBC [3]: 43.7
- DBC [4]: 10
- DBC [5]: 24.3

Molecule: {Fmoc-PEG4′}-GPDCAYHRGELVWCTFH-NH2 (linker 4-14 via thiocarbonyldiimidazole)
- Kd (IgG [6]): 1000 nM

Molecule: {Biotin-PEG4′}-GPRCAYHRGELVWCSFH-NH2 (disulfide 4-14 (inferred))
- Kd (IgG [1]): 56 nM
- Kd (IgG [2]): 42 nM

Molecule: {Biotin-PEG4′}-DCAYHRGELVWCT-NH2 (disulfide 2-12 (inferred))
- Kd (IgG [1]): 64.5 nM
- Kd (IgG [2]): 54 nM

Molecule: {Biotin-PEG4′}-GPDCAYHLGELVWCTFH-NH2 (disulfide 4-14 (inferred))
- Kd (IgG [2]): 8.1 nM

Molecule: [PEG4′]GPDCAYHRGELVWCTFH-NH2 (linker 5-15 via 1,3‑dichloro‑2‑propanone)
- DBC [7]: 15.8
- DBC 10% [8]: 4.7 mg/mL
- DBC 10% (% NaOH washing cycle 0) [8]: 97.9%
- DBC 10% [9]: 4.9 mg/mL
- DBC 10% (% NaOH washing cycle 0) [9]: 102%
- DBC [10]: 2.3
- DBC [11]: 7
- DBC [12]: 3.4
- DBC [13]: 31.4
- DBC [14]: 23.1
- DBC [15]: 12.1
- DBC [16]: 29.5
- DBC 10% [17]: 4.8 mg/mL
- DBC 10% (% NaOH washing cycle 0) [17]: 100%
- DBC 10% [18]: 4.8 mg/mL
- DBC 10% (% NaOH washing cycle 0) [18]: 100%
- DBC 10% [19]: 4.8 mg/mL
- DBC 10% (% NaOH washing cycle 0) [19]: 100%
- DBC 10% [20]: 4.8 mg/mL
- DBC 10% (% NaOH washing cycle 0) [20]: 100%
- DBC [21]: 23.1

Molecule: {Biotin-PEG4′}-GPDCAYHRGELVWCTFH-NH2 (disulfide 4-14 (inferred))
- Kd (IgG [1]): 10 nM
- Kd (IgG [2]): 9.1 nM
